Target: 3HA-MCHR1 (melanin-concentrating hormone receptor 1) (mouse) (UniProt Q8JZL2)
UniProt Q8JZL2, sequence (Q8JZL2 whole entry): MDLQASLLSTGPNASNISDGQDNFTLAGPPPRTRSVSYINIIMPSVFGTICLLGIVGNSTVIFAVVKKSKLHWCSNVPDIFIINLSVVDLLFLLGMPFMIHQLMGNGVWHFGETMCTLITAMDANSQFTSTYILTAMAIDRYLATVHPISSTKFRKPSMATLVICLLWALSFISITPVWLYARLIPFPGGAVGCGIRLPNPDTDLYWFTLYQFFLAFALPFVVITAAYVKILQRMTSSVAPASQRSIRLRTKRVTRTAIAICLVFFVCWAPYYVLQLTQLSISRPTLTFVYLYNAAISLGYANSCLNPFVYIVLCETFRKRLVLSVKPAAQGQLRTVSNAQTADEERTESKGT

B1: Melanin concentrating hormone (MCH) (peptide)
peptide: DFDMLRCMLGRVYRPCWQV
Work on B1 yielded a LogEC50 of MCH (10^-11 to 10^-6 M), NFAT-luciferase Ca2+ reporter in HEK293T cells with MCHR1 alone of -8.15 log M, a LogEC50 of MCH, NFAT-luciferase Ca2+ reporter in HEK293T cells with MCHR1 and MRAP2 WT co-transfected (1:9) of -7.06 log M and a LogEC50 of MCH, NFAT-luciferase Ca2+ reporter in HEK293T cells with MCHR1 and MRAP2 t97 co-transfected (1:9) of -7.34 log M. The LogEC50 of MCH, NFAT-luciferase Ca2+ reporter in HEK293T cells with MCHR1 and MRAP2 t118 co-transfected (1:9) was -7.59 log M, the LogEC50 of MCH, NFAT-luciferase Ca2+ reporter in HEK293T cells with MCHR1 and MRAP2 t143 co-transfected (1:9) was -7.6 log M and the LogEC50 of MCH, NFAT-luciferase Ca2+ reporter in HEK293T cells with MCHR1 and MRAP2 Δ4–11 co-transfected (1:9) was -7.24 log M. It also gave a LogEC50 of MCH, NFAT-luciferase Ca2+ reporter in HEK293T cells with MCHR1 and MRAP2 Δ12–25 co-transfected (1:9) of -6.76 log M, a LogEC50 of MCH, NFAT-luciferase Ca2+ reporter in HEK293T cells with MCHR1 and MRAP2 Δ26–35 co-transfected (1:9) of -7.55 log M and a LogEC50 of MCH, NFAT-luciferase Ca2+ reporter in HEK293T cells with MCHR1 and MRAP2 Δ36–45 co-transfected (1:9) of -6.64 log M. The LogEC50 of MCH, NFAT-luciferase Ca2+ reporter in HEK293T cells with MCHR1 and MRAP2 Δct co-transfected (1:9) was -7.51 log M.
